From patent US20210324028A1 (Pfizer, published 2021)

T1: human IL-2Rβ (human, UniProt P14784 27-240, limits assumed)
T1 construct: also called hIL-2Rβ; IL-2 receptor beta
T1 sequence (looked up): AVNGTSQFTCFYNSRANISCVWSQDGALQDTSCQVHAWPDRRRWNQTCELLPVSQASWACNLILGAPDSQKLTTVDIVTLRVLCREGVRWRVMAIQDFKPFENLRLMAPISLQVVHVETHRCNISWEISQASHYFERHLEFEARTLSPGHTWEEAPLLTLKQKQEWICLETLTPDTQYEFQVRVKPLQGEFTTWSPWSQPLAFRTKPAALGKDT


Experiments:
human IL-2Rβ = target: T1, human IL-2Rβ; assay: SPR, steady state
human IL-15Rα = target: T2, human IL-15Rα (human, UniProt Q13261 31-205, limits assumed); assay: SPR, steady state
T2 construct: also called hIL-15Rα; IL-15 receptor alpha
T2 sequence (Q13261 31-205 limits assumed): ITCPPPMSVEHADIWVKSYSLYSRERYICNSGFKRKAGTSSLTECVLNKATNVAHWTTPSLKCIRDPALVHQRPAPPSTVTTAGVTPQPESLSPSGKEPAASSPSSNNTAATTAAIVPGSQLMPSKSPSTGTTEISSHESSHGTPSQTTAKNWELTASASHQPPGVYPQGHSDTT

Binder	Kd (human IL-2Rβ)	Kd (human IL-15Rα)
hIL-15 V49R/N1A (ligand) AWVNVISDLKKIEDLIQSMHIDATLYTESDVHPSCKVTAMKCFLLELQRISLESGDASIHDTVENLIILANNSLSSNGNVTESGCKECEELEEKNIKEFLQSFVHIVQMFINTGGGGSGHHHHHHHHGGGLNDIFEAQKIEWHE	398 nM	175 nM
hIL-15 V49R/N1D (ligand) DWVNVISDLKKIEDLIQSMHIDATLYTESDVHPSCKVTAMKCFLLELQRISLESGDASIHDTVENLIILANNSLSSNGNVTESGCKECEELEEKNIKEFLQSFVHIVQMFINTGGGGSGHHHHHHHHGGGLNDIFEAQKIEWHE	311 nM	105 nM
hIL-15 V49R/N1E (ligand) EWVNVISDLKKIEDLIQSMHIDATLYTESDVHPSCKVTAMKCFLLELQRISLESGDASIHDTVENLIILANNSLSSNGNVTESGCKECEELEEKNIKEFLQSFVHIVQMFINTGGGGSGHHHHHHHHGGGLNDIFEAQKIEWHE	340 nM	171 nM
hIL-15 V49R/N1G (ligand) GWVNVISDLKKIEDLIQSMHIDATLYTESDVHPSCKVTAMKCFLLELQRISLESGDASIHDTVENLIILANNSLSSNGNVTESGCKECEELEEKNIKEFLQSFVHIVQMFINTGGGGSGHHHHHHHHGGGLNDIFEAQKIEWHE	> 500 nM	160 nM
hIL-15 V49R/N1H (ligand) HWVNVISDLKKIEDLIQSMHIDATLYTESDVHPSCKVTAMKCFLLELQRISLESGDASIHDTVENLIILANNSLSSNGNVTESGCKECEELEEKNIKEFLQSFVHIVQMFINTGGGGSGHHHHHHHHGGGLNDIFEAQKIEWHE	235 nM	151 nM
hIL-15 V49R/N1K (ligand) KWVNVISDLKKIEDLIQSMHIDATLYTESDVHPSCKVTAMKCFLLELQRISLESGDASIHDTVENLIILANNSLSSNGNVTESGCKECEELEEKNIKEFLQSFVHIVQMFINTGGGGSGHHHHHHHHGGGLNDIFEAQKIEWHE	> 500 nM	264 nM
hIL-15 V49R/N1Q (ligand) QWVNVISDLKKIEDLIQSMHIDATLYTESDVHPSCKVTAMKCFLLELQRISLESGDASIHDTVENLIILANNSLSSNGNVTESGCKECEELEEKNIKEFLQSFVHIVQMFINTGGGGSGHHHHHHHHGGGLNDIFEAQKIEWHE	> 500 nM	115 nM
hIL-15 V49R/N1S (ligand) SWVNVISDLKKIEDLIQSMHIDATLYTESDVHPSCKVTAMKCFLLELQRISLESGDASIHDTVENLIILANNSLSSNGNVTESGCKECEELEEKNIKEFLQSFVHIVQMFINTGGGGSGHHHHHHHHGGGLNDIFEAQKIEWHE	194 nM	140 nM
hIL-15 V49R/N1T (ligand) TWVNVISDLKKIEDLIQSMHIDATLYTESDVHPSCKVTAMKCFLLELQRISLESGDASIHDTVENLIILANNSLSSNGNVTESGCKECEELEEKNIKEFLQSFVHIVQMFINTGGGGSGHHHHHHHHGGGLNDIFEAQKIEWHE	249 nM	104 nM
hIL-15 V49R/N4A (ligand) NWVAVISDLKKIEDLIQSMHIDATLYTESDVHPSCKVTAMKCFLLELQRISLESGDASIHDTVENLIILANNSLSSNGNVTESGCKECEELEEKNIKEFLQSFVHIVQMFINTGGGGSGHHHHHHHHGGGLNDIFEAQKIEWHE	> 500 nM	98 nM
hIL-15 V49R/N4D (ligand) NWVDVISDLKKIEDLIQSMHIDATLYTESDVHPSCKVTAMKCFLLELQRISLESGDASIHDTVENLIILANNSLSSNGNVTESGCKECEELEEKNIKEFLQSFVHIVQMFINTGGGGSGHHHHHHHHGGGLNDIFEAQKIEWHE	365 nM	103 nM
hIL-15 V49R/N4E (ligand) NWVEVISDLKKIEDLIQSMHIDATLYTESDVHPSCKVTAMKCFLLELQRISLESGDASIHDTVENLIILANNSLSSNGNVTESGCKECEELEEKNIKEFLQSFVHIVQMFINTGGGGSGHHHHHHHHGGGLNDIFEAQKIEWHE	311 nM	79.8 nM
hIL-15 V49R/N4G (ligand) NWVGVISDLKKIEDLIQSMHIDATLYTESDVHPSCKVTAMKCFLLELQRISLESGDASIHDTVENLIILANNSLSSNGNVTESGCKECEELEEKNIKEFLQSFVHIVQMFINTGGGGSGHHHHHHHHGGGLNDIFEAQKIEWHE	> 500 nM	105 nM
hIL-15 V49R/N4H (ligand) NWVHVISDLKKIEDLIQSMHIDATLYTESDVHPSCKVTAMKCFLLELQRISLESGDASIHDTVENLIILANNSLSSNGNVTESGCKECEELEEKNIKEFLQSFVHIVQMFINTGGGGSGHHHHHHHHGGGLNDIFEAQKIEWHE	96.4 nM	81.5 nM
hIL-15 V49R/N4L (ligand) NWVLVISDLKKIEDLIQSMHIDATLYTESDVHPSCKVTAMKCFLLELQRISLESGDASIHDTVENLIILANNSLSSNGNVTESGCKECEELEEKNIKEFLQSFVHIVQMFINTGGGGSGHHHHHHHHGGGLNDIFEAQKIEWHE	429 nM	98.6 nM
hIL-15 V49R/N4M (ligand) NWVMVISDLKKIEDLIQSMHIDATLYTESDVHPSCKVTAMKCFLLELQRISLESGDASIHDTVENLIILANNSLSSNGNVTESGCKECEELEEKNIKEFLQSFVHIVQMFINTGGGGSGHHHHHHHHGGGLNDIFEAQKIEWHE	233 nM	88.1 nM
hIL-15 V49R/N4Q (ligand) NWVQVISDLKKIEDLIQSMHIDATLYTESDVHPSCKVTAMKCFLLELQRISLESGDASIHDTVENLIILANNSLSSNGNVTESGCKECEELEEKNIKEFLQSFVHIVQMFINTGGGGSGHHHHHHHHGGGLNDIFEAQKIEWHE	> 500 nM	59.5 nM
hIL-15 V49R/N4W (ligand) NWVWVISDLKKIEDLIQSMHIDATLYTESDVHPSCKVTAMKCFLLELQRISLESGDASIHDTVENLIILANNSLSSNGNVTESGCKECEELEEKNIKEFLQSFVHIVQMFINTGGGGSGHHHHHHHHGGGLNDIFEAQKIEWHE	438 nM	143 nM
hIL-15 V49R/N65D (ligand) NWVNVISDLKKIEDLIQSMHIDATLYTESDVHPSCKVTAMKCFLLELQRISLESGDASIHDTVEDLIILANNSLSSNGNVTESGCKECEELEEKNIKEFLQSFVHIVQMFINTGGGGSGHHHHHHHHGGGLNDIFEAQKIEWHE	> 500 nM	121 nM
hIL-15 V49R/N65K (ligand) NWVNVISDLKKIEDLIQSMHIDATLYTESDVHPSCKVTAMKCFLLELQRISLESGDASIHDTVEKLIILANNSLSSNGNVTESGCKECEELEEKNIKEFLQSFVHIVQMFINTGGGGSGHHHHHHHHGGGLNDIFEAQKIEWHE	193 nM	201 nM
hIL-15 V49R/N72A (ligand) NWVNVISDLKKIEDLIQSMHIDATLYTESDVHPSCKVTAMKCFLLELQRISLESGDASIHDTVENLIILANASLSSNGNVTESGCKECEELEEKNIKEFLQSFVHIVQMFINTGGGGSGHHHHHHHHGGGLNDIFEAQKIEWHE	148 nM	117 nM
hIL-15 V49R/N72D (ligand) NWVNVISDLKKIEDLIQSMHIDATLYTESDVHPSCKVTAMKCFLLELQRISLESGDASIHDTVENLIILANDSLSSNGNVTESGCKECEELEEKNIKEFLQSFVHIVQMFINTGGGGSGHHHHHHHHGGGLNDIFEAQKIEWHE	101 nM	105 nM
hIL-15 V49R/N72K (ligand) NWVNVISDLKKIEDLIQSMHIDATLYTESDVHPSCKVTAMKCFLLELQRISLESGDASIHDTVENLIILANKSLSSNGNVTESGCKECEELEEKNIKEFLQSFVHIVQMFINTGGGGSGHHHHHHHHGGGLNDIFEAQKIEWHE	> 500 nM	101 nM
hIL-15 V49R/N72S (ligand) NWVNVISDLKKIEDLIQSMHIDATLYTESDVHPSCKVTAMKCFLLELQRISLESGDASIHDTVENLIILANSSLSSNGNVTESGCKECEELEEKNIKEFLQSFVHIVQMFINTGGGGSGHHHHHHHHGGGLNDIFEAQKIEWHE	182 nM	118 nM
hIL-15 V49R/Q108A (ligand) NWVNVISDLKKIEDLIQSMHIDATLYTESDVHPSCKVTAMKCFLLELQRISLESGDASIHDTVENLIILANNSLSSNGNVTESGCKECEELEEKNIKEFLQSFVHIVAMFINTGGGGSGHHHHHHHHGGGLNDIFEAQKIEWHE	462 nM	161 nM
hIL-15 V49R/Q108D (ligand) NWVNVISDLKKIEDLIQSMHIDATLYTESDVHPSCKVTAMKCFLLELQRISLESGDASIHDTVENLIILANNSLSSNGNVTESGCKECEELEEKNIKEFLQSFVHIVDMFINTGGGGSGHHHHHHHHGGGLNDIFEAQKIEWHE	215 nM	125 nM
hIL-15 V49R/Q108K (ligand) NWVNVISDLKKIEDLIQSMHIDATLYTESDVHPSCKVTAMKCFLLELQRISLESGDASIHDTVENLIILANNSLSSNGNVTESGCKECEELEEKNIKEFLQSFVHIVKMFINTGGGGSGHHHHHHHHGGGLNDIFEAQKIEWHE	249 nM	85.4 nM
